Target: TcpJ, type 4 prepilin peptidase of Vibrio cholerae (wild-type) (Vibrio cholerae)

## Aprotinin (from UniProt P00974)
  % Cleavage of TcpA prepilin by TcpJ in the in vitro cleavage assay: 100%

From patent US20050201999A1
